# Assay: yeast display, Sf9 membrane polyspecificity reagent, FACS + sequencing; frameworks hold sequencing errors
# In short: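 Sorting gates, low and high (top ~1%), were placed on anti-HA fluorescence to track expression and on streptavidin fluorescence to track reagent binding. A clone's polyreactivity label is taken from the gate it came out of. The reagent was 10% biotinylated, detergent-solubilized Sf9 membrane, applied for 1 hour at 4 °C to galactose-induced yeast display cells.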
row,Sequence,polyreactivity (PSR sort gate)
1,QVQLQEGGGGLVQAGGSLRLSCAASGYIFNGDWKGWYRQAPGKERELVATINYGATTNYADSVKGRFTISRDNAKNTVYLQMNSLKPEDTAVYYCAVGGHGAQLYVYWGQGTQVTVSN,high polyreactivity
2,QVQLQERAAWCRRAGSLRLSCAASGNISDYYFMGWYRQAPGKERELVAAIAPGSNTYYADSVKGRFTISRDNAKNTVYLQMNSLKPEDTAVCFCAANSTQYSWFDYWGQGTQVPVSS,low polyreactivity
3,QVQLQERGGGLVQAGGSLRLTCAASGTISDSGLMGWYRQAPGKERELVAGISSGGITNYADSVKGRFTISRDNANNTVYLQMNSLKPEDNAVFWGQGSQVTVSS,low polyreactivity
4,QVQLQERGGGLVQVGGSKRLSCAASGNIFYNYSMGWYRHAQGKEREFDDTINHGTSINYADSVKGRFTISRDKATNTGYLEMNSLKPEDTAVFYCAADRSWTDNLFYWGQGSQVTVSS,low polyreactivity
5,QVQLQESAGGLVQAGGSLRRSCAASGSIFSNCAMGWYRQTPGKERELVASITAGGNNNYADSVKGRFTISRDNAKNTVYLPMNSLKPEETAVYYCNRRYPGPDSFEHYYYYRYDYWGQGTQVTVSS,low polyreactivity
6,QVQLQESAGGRQPAPELRGERLYFWLLLMGWYRQAPGEERELVAGINYGASTNYSDSVKGRFTISRDNARNTVYLKMNSLKPGDTAVYYCAVWQPVLIWFYYWGQGTQVTVSS,high polyreactivity
7,QVQLQESCGGLVQVGGSLRLSCAASVTIFIYGFLGWYRQAPGKERELVASINLGGITNYADSVKGRFTISRDNANNTVYLQMISLKPEDTAVYYCAAYVVTGQNYGYWGQGTQVTVSS,low polyreactivity
8,QVQLQESDGGLVQAGGSLRLSCAASGSISPQYYRGWYRQAPGKEREFVAISKGTSTYYADSVKGRLTISRVNAKNTVYLQMNSLKPEDTAVYCCAAGRWLQKVHAYWDQGTQVTVSS,low polyreactivity
9,QVQLQESGDGLVQAGGSLRLSSAASGTIFSDYGMGGYRQAPGKERELLAGISDGCNTNYTDSVKGRFTISRDNAHRVSADELPETGVYRGVLLRGCERWLLFYVYWGQGTQVTVSS,high polyreactivity
10,QVQLQESGDGLVQAVGSLRLSCAASGYISGKYYMGWYRKAPGNERGLLDGIDACGSRTNYADCVKGRFTISRDNAHNTVYLQMNSLKPEDTAVYYCAARPDGDRLFSYWGQGTQVPVSS,low polyreactivity
11,QVQLQESGGGLAQAGGCLRLSCAASGTIFPADSMGWYRQAPGIERELVAGITSGANTYYADSVKGRFTISHDNAKNTVYLQMDSLIPEDIAVYYCAAPGSSTYDLEYWGQGTQGTVSS,high polyreactivity
12,QVQLQESGGGLAQAGGSLRLSCAASGTIFPADSMGWYRQAPGKERELVAGITSGANTYYADSVKGRFTISHDNAKYTVYLQMDSLIPEDIAVYYCAAPGSSTYDLEYWGQGTQVTVSS,high polyreactivity
13,QVQLQESGGGLEPAGGSLRLSCAASGTISVHASMGWYRQAPGKERELVAGITDGANTYYADSVKGRFTISRDNSKNTVYLQMNSLKPEDTAVYYCAAYYGTAFHFTYWCQGTQVTVSS,low polyreactivity
14,QVQLQESGGGLEQAGGSLRLSCAASGYISDIGTMGWYRQAPGKEREFVATIVVGSTTNYADSVKGRFTISRDNAKNTVYLQPQSGRYRGVLLRAWLLAVGKFTYWGQGTQETVSS,low polyreactivity
15,QVQLQESGGGLLQADGSLRLSCAASGTIFTQSYMGWYRQAPGKEREFVAGISNGTNTNYGDSVKGRFTISRDNAKNTVYLQMNSLKLEDTAVYYCAVKGFYVDVLAYWGQGTHVTVSS,high polyreactivity
16,QVQLQESGGGLLQAGGSLRLSCAASGIIFDNPNKGWYRQAPGKERDLVATINSGATTNYADSVKGRFTISRDNAKNTVYLQMNSLIPVDTAVYYCAVDLSPTYFYYWGQGTQVTVSS,high polyreactivity
17,QVQLQESGGGLMQAGGSQRLSCAASGSISYYSDMAWYRQAPGKEREFVAGIGYGTSTNYADSVKGRFTTSRDNAKNTVYLQMISMKPEDTAVYYCAAYQGNGYEFYYWGQGTQVTVRS,low polyreactivity
18,QVQLQESGGGLMQAGGSQRLSCAASGSISYYSDMGWYPQAPGKEREFVAGIGYGTTTNYADSVKGRFTTSRDNAKNTVYMQMISMKPEDTAVYYCAAYQGNGYEFYYWGQGTQVTVRS,low polyreactivity
19,QVQLQESGGGLVKAGGSLRLSCAASGYLILQYAMGWYRPAPGKERELVASIARGTSTYYADSVKGRFTISRDNAKNTVYLQMNSLKPEDTAVYYCAVIYSWGLWHDYWGQGTQVTVSS,high polyreactivity
20,QVQLQESGGGLVLAGGSLRLSCADSGYISWSFTMVWYRKAPGKEREFVAGITYGGITYYADSVKGRFTISRDNAKNTVYLQMNSLKPEDTAVYYCAAPQTYPYVYVYWGQGTQLTVSS,high polyreactivity
21,QVQLQESGGGLVLAGGSLRLSCSASGNISVYGSMGWYRQAPGKEREFVATIDPGTNTNYADSVKDRFTISRDNAKNTVYLQMTSLKPEDTAVYYCAVEAGSDGPYRYWGQGTQVTVSS,low polyreactivity

row,Sequence,polyreactivity (PSR sort gate)
1,QVQLQESGGGLVQACGIQRLSCAATGSISEGQDMGWYSRSPGKERECVAGIAPGATTYYADSLKGRFTISRDNAKKTVYLQMTSLKPEDTAVYYCAARSVTETDHDYWGQGSQVTVSS,low polyreactivity
2,QVQLQESGGGLVQACGSLRLSCAASGNISPQLYMGWYRQAPGKEREFVADIAEGSTTYYAESVKGRFTISRDDAKNTVYLHMISLKSEDTAVYYCAARYENAESFYYWGQGSQVTVSS,high polyreactivity
3,QVQLQESGGGLVQACGSQRLSCAASGSICEGQDMGWYRRAPGKEREFVAGIAPGATTYYADSVKGRFTISRDNAKNTVYLQMNSLKPEDTAVYYCAARSVTETDHDSWGQGTQVTVSS,low polyreactivity
4,QVQLQESGGGLVQAGGCLRLSCAASGTSFDPDYMGWYHQAPGKERELVASISLGRITYNADSVKGRFTINRDNAKNTVYLQMNSLKPEDTAVYYCAVRVETIYYYSYWGQGTQVTVSS,high polyreactivity
5,QVQLQESGGGLVQAGGCLSCTASGTIFGQGDMGWYRQAPGKERELVATINDGASTYYADSVKGRFTISRDKAKNTVYLQKNSLKPDDTAGYYCAVFTDITTYFGYWGQGTQLTVSS,low polyreactivity
6,QVQLQESGGGLVQAGGDLRLTCAASGNIFRDYIMGWYRQAPGKEREFVAGIDRGANTNYADSVKGRFTISRDNAKNTVYLQMNSLKPEDTAVYYCAVHTAIVPDFIYWGQGTQVTVSS,low polyreactivity
7,QVQLQESGGGLVQAGGILRLSCAASGSIFHLHIMCWYRQEPGKERESVAAISNGTSTYYADSVKGRFTICRDNAKNTVYLQMNSPKPDDTAVYYCAALFLVSKHHHYWGEGTQVTVSS,low polyreactivity
8,QVQLQESGGGLVQAGGSLCLSCAASGTIFFDGDMGWYRQAPGKEREFVAAINPGGSAYYADSVKGRLPLAAITHTVYLQMISLKPEDTAVYYCAAKLFDVYGYYYWGQGTHVTVSS,low polyreactivity
9,QVQLQESGGGLVQAGGSLLSCAASGTISWDDEMGWYLQAPGNERELVAGIAGGGNTNYADSVKGRFTISRDNAKNTVYLQMNSLDTAVYYCAVVGFGRGTHIYWGQGTQVTVSS,high polyreactivity
10,QVQLQESGGGLVQAGGSLLSCAASGTISWVDEMGWYLQAPGNERELVAGIAGGGNTNYADSVKGRFTISRDNAKNTVYLQMNSLDTAVYYCAVVGFGRGTHIYWGQGTQVTVSS,high polyreactivity
11,QVQLQESGGGLVQAGGSLLSCAASGTISWVDEMGWYRQAPGNERELVAGIAGGGNTNYADSVKGRFTISRDNAKNTVYLQMNSLDTAVYYCAVVGFGGGTHIYWGQGTQVTVSS,high polyreactivity
12,QVQLQESGGGLVQAGGSLLSCAASGTISYYREMGWYRQAPGKERELVAGIGVGTITYYADSVKGRFTISRDNAKNTVYLQMNSLKPEATAVYYCAAHIDGNDSHAYWGQGTQVTVSS,low polyreactivity
13,QVQLQESGGGLVQAGGSLLSCAASGTISYYREMGWYRQAPGKERELVAGIGVGTITYYADSVKGRFTISRHNAINTVYMQMNSLKPEDTAVYYCAAHIDGNDSHAYWGQGTQVTVSS,low polyreactivity
14,QVQLQESGGGLVQAGGSLRLGCAASGNISDAGYMGWYRQAPGKEREFVAAIAAGSNTNYADSVKGRFTISRDNAKNTVYLQMNSLKPEVTAVFYCAVACYARVQYEYWGQGTQVTVNS,low polyreactivity
15,QVQLQESGGGLVQAGGSLRLSCAASGIIFDNPNMGWYRQAPGKERELVATINSGATTNYADSVKGRFTISRDNAKNTVYLQMNSLIPEDTAVYYCAVDLSPTYFYYWGQGTQVTVSS,high polyreactivity
16,QVQLQESGGGLVQAGGSLRLSCAASGNFFDADIMGWYRQAPGKERELVASITDGGSTNYAVSVKGRFTISRGNTKNTVYLLMNCLKPEDTSVYYCAAIAYPDIPTYFDYNSDYFYWGQGTQVTVSS,high polyreactivity
17,QVQLQESGGGLVQAGGSLRLSCAASGNIFDADIMGWYRQAPGKERELVASITDGGSTNYADSVKGRFTISRDNAKNSVYLQMNSLLPEDTAVYYCAAIAYPDIPTYFDYDSDYFYWGQGTQVTVSS,high polyreactivity
18,QVQLQESGGGLVQAGGSLRLSCAASGNIYDADIMGWYRQAPGKERELVTSITDGGSTNYADSVKGRFTISRDNAKNTVYLQMNSLKPEDTAVYYSAAIAYPDIPTSFDYNSDYSYWGQGTQVTVSS,low polyreactivity
19,QVQLQESGGGLVQAGGSLRLSCAASGPISRRSNMGWYRQSPGKESELVTAITRGTNTNYADSVKGRFTISRDNAKYTEYLQMNSLNPEDTAVYYCADYGVLKPSRGDAVFNRYWGQGTQVTVSS,low polyreactivity
20,QVQLQESGGGLVQAGGSLRLSCAASGPISRRSTMGWYRQAPGKERELVTAITRGTNTNYADSVKGRFTISRDNAKNTEYLQMYCLKPEDTAVYYCAAYGVLKPSRGDAVFHRYWGQGTQVTVSS,low polyreactivity
